From PMC10142772

Biological target: D. officinale MYB5 (DoMYB5), R2R3-MYB transcription factor (Dendrobium officinale)
Sequence (main, as listed by the source): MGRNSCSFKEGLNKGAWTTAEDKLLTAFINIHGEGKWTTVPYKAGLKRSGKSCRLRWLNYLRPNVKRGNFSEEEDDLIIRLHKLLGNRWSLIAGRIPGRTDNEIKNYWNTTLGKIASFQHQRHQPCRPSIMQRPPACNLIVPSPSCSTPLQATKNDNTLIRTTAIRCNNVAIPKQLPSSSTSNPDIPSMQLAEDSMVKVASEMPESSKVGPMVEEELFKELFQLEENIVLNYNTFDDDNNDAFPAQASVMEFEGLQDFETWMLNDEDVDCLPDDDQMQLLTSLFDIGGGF

D. officinale bHLH24 (DobHLH24), bHLH transcription factor (natural protein)
dual-luciferase assay in tobacco leaves: activity of the DoCHS promoter on co-expression of DoMYB5 and DobHLH24, against the control group (times higher than the control group): 4.8 | dual-luciferase assay in tobacco leaves: activity of the DoDFR promoter on co-expression of DoMYB5 and DobHLH24, against the control group (times higher than the control group): 2.5
